From US20250171562A1 come the findings set out here.

The chains are these.
B1: CIgG4E1A1(G4S)2 (Fc fusion)
chain 1: GPPCPPCPAPEFLGGPSVFLFPPKPKDTLMISRTPEVTCVVVDVSQEDPEVQFNWYVDGVEVHNAKTKPREEQFNSTYRVVSVLTVLHQDWLNGKEYKCKVSNKGLPSSIEKTISKAKGQPREPQVYTLPPCQEEMTKNQVSLWCLVKGFYPSDIAVEWESNGQPENNYKTTPPVLDSDGSFFLYSRLTVDKSRWQEGNVFSCSVMHEALHNHYTQKSLSLSLGKGGGGSGGGGSDVQLQESGGGLVQAGGSLRLSCLASGRTFTTTSGYNMGWFRQAPGKEREFVAGIKWVSGSNRAYAESVKGRFTISRDNAKNTVYLQMNSLKPEDTAVYYCAAATGQSYVPIREYEYVYWGQGTQVTVS
chain 2: GPPCPPCPAPEFLGGPSVFLFPPKPKDTLMISRTPEVTCVVVDVSQEDPEVQFNWYVDGVEVHNAKTKPREEQFNSTYRVVSVLTVLHQDWLNGKEYKCKVSNKGLPSSIEKTISKAKGQPREPQVCTLPPSQEEMTKNQVSLSCAVKGFYPSDIAVEWESNGQPENNYKTTPPVLDSDGSFFLVSRLTVDKSRWQEGNVFSCSVMHEALHNHYTQKSLSLSLGKGGGGSGGGGSEVQLLESGGGLVQPGGSLRLSCAASGFTFGNYDMAWVRQAPGKRPEWVSSIDTGGDITHYADSVKGRFTISRDNAKNTLYLQMNSLRPEDTAVYWCATDEEYALGPNEFDYYGQGTLVTVSS
B2: CIgG4E1A1(G4S)3 (Fc fusion)
chain 1: GPPCPPCPAPEFLGGPSVFLFPPKPKDTLMISRTPEVTCVVVDVSQEDPEVQFNWYVDGVEVHNAKTKPREEQFNSTYRVVSVLTVLHQDWLNGKEYKCKVSNKGLPSSIEKTISKAKGQPREPQVYTLPPCQEEMTKNQVSLWCLVKGFYPSDIAVEWESNGQPENNYKTTPPVLDSDGSFFLYSRLTVDKSRWQEGNVFSCSVMHEALHNHYTQKSLSLSLGKGGGGSGGGGSGGGGSDVQLQESGGGLVQAGGSLRLSCLASGRTFTTTSGYNMGWFRQAPGKEREFVAGIKWVSGSNRAYAESVKGRFTISRDNAKNTVYLQMNSLKPEDTAVYYCAAATGQSYVPIREYEYVYWGQGTQVTVS
chain 2: GPPCPPCPAPEFLGGPSVFLFPPKPKDTLMISRTPEVTCVVVDVSQEDPEVQFNWYVDGVEVHNAKTKPREEQFNSTYRVVSVLTVLHQDWLNGKEYKCKVSNKGLPSSIEKTISKAKGQPREPQVCTLPPSQEEMTKNQVSLSCAVKGFYPSDIAVEWESNGQPENNYKTTPPVLDSDGSFFLVSRLTVDKSRWQEGNVFSCSVMHEALHNHYTQKSLSLSLGKGGGGSGGGGSGGGGSEVQLLESGGGLVQPGGSLRLSCAASGFTFGNYDMAWVRQAPGKRPEWVSSIDTGGDITHYADSVKGRFTISRDNAKNTLYLQMNSLRPEDTAVYWCATDEEYALGPNEFDYYGQGTLVTVSS
B3: NIgG4E2A1(RS) (Fc fusion)
chain 1: DVQLQESGGGLVQAGGSLRLSCAASGRTISRYAVGWFRRPPAKEREFIGINWSGGSTTYADSAEGRFIISRDNAKNTVYLQMNSLKPEDTAVYYCAVPSVLVQGGISNPSQYDYWGQGTQVTVSRSGPPCPPCPAPEFLGGPSVFLFPPKPKDTLMISRTPEVTCVVVDVSQEDPEVQFNWYVDGVEVHNAKTKPREEQFNSTYRVVSVLTVLHQDWLNGKEYKCKVSNKGLPSSIEKTISKAKGQPREPQVYTLPPCQEEMTKNQVSLWCLVKGFYPSDIAVEWESNGQPENNYKTTPPVLDSDGSFFLYSRLTVDKSRWQEGNVFSCSVMHEALHNHYTQKSLSLSLGK
chain 2: EVQLLESGGGLVQPGGSLRLSCAASGFTFGNYDMAWVRQAPGKRPEWVSSIDTGGDITHYADSVKGRFTISRDNAKNTLYLQMNSLRPEDTAVYWCATDEEYALGPNEFDYYGQGTLVTVSSRSGPPCPPCPAPEFLGGPSVFLFPPKPKDTLMISRTPEVTCVVVDVSQEDPEVQFNWYVDGVEVHNAKTKPREEQFNSTYRVVSVLTVLHQDWLNGKEYKCKVSNKGLPSSIEKTISKAKGQPREPQVCTLPPSQEEMTKNQVSLSCAVKGFYPSDIAVEWESNGQPENNYKTTPPVLDSDGSFFLVSRLTVDKSRWQEGNVFSCSVMHEALHNHYTQKSLSLSLGK
B4: NIgG4E2A1(G4S)1 (Fc fusion)
chain 1: DVQLQESGGGLVQAGGSLRLSCAASGRTISRYAVGWFRRPPAKEREFIGINWSGGSTTYADSAEGRFIISRDNAKNTVYLQMNSLKPEDTAVYYCAVPSVLVQGGISNPSQYDYWGQGTQVTVSGGGGSGPPCPPCPAPEFLGGPSVFLFPPKPKDTLMISRTPEVTCVVVDVSQEDPEVQFNWYVDGVEVHNAKTKPREEQFNSTYRVVSVLTVLHQDWLNGKEYKCKVSNKGLPSSIEKTISKAKGQPREPQVYTLPPCQEEMTKNQVSLWCLVKGFYPSDIAVEWESNGQPENNYKTTPPVLDSDGSFFLYSRLTVDKSRWQEGNVFSCSVMHEALHNHYTQKSLSLSLGK
chain 2: EVQLLESGGGLVQPGGSLRLSCAASGFTFGNYDMAWVRQAPGKRPEWVSSIDTGGDITHYADSVKGRFTISRDNAKNTLYLQMNSLRPEDTAVYWCATDEEYALGPNEFDYYGQGTLVTVSSGGGGSGPPCPPCPAPEFLGGPSVFLFPPKPKDTLMISRTPEVTCVVVDVSQEDPEVQFNWYVDGVEVHNAKTKPREEQFNSTYRVVSVLTVLHQDWLNGKEYKCKVSNKGLPSSIEKTISKAKGQPREPQVCTLPPSQEEMTKNQVSLSCAVKGFYPSDIAVEWESNGQPENNYKTTPPVLDSDGSFFLVSRLTVDKSRWQEGNVFSCSVMHEALHNHYTQKSLSLSLGK
B5: CIgG4E1A1(G4S)1 (Fc fusion)
chain 1: GPPCPPCPAPEFLGGPSVFLFPPKPKDTLMISRTPEVTCVVVDVSQEDPEVQFNWYVDGVEVHNAKTKPREEQFNSTYRVVSVLTVLHQDWLNGKEYKCKVSNKGLPSSIEKTISKAKGQPREPQVYTLPPCQEEMTKNQVSLWCLVKGFYPSDIAVEWESNGQPENNYKTTPPVLDSDGSFFLYSRLTVDKSRWQEGNVFSCSVMHEALHNHYTQKSLSLSLGKGGGGSDVQLQESGGGLVQAGGSLRLSCLASGRTFTTTSGYNMGWFRQAPGKEREFVAGIKWVSGSNRAYAESVKGRFTISRDNAKNTVYLQMNSLKPEDTAVYYCAAATGQSYVPIREYEYVYWGQGTQVTVS
chain 2: GPPCPPCPAPEFLGGPSVFLFPPKPKDTLMISRTPEVTCVVVDVSQEDPEVQFNWYVDGVEVHNAKTKPREEQFNSTYRVVSVLTVLHQDWLNGKEYKCKVSNKGLPSSIEKTISKAKGQPREPQVCTLPPSQEEMTKNQVSLSCAVKGFYPSDIAVEWESNGQPENNYKTTPPVLDSDGSFFLVSRLTVDKSRWQEGNVFSCSVMHEALHNHYTQKSLSLSLGKGGGGSEVQLLESGGGLVQPGGSLRLSCAASGFTFGNYDMAWVRQAPGKRPEWVSSIDTGGDITHYADSVKGRFTISRDNAKNTLYLQMNSLRPEDTAVYWCATDEEYALGPNEFDYYGQGTLVTVSS

By EC50 is commonly meant the midpoint of the concentration-response curve.

mixture of three Der p 2 specific recombinant human IgE clones H10, H12, P4E (human), sequence (P01854 other isoform, or with tags, fused parts or gaps): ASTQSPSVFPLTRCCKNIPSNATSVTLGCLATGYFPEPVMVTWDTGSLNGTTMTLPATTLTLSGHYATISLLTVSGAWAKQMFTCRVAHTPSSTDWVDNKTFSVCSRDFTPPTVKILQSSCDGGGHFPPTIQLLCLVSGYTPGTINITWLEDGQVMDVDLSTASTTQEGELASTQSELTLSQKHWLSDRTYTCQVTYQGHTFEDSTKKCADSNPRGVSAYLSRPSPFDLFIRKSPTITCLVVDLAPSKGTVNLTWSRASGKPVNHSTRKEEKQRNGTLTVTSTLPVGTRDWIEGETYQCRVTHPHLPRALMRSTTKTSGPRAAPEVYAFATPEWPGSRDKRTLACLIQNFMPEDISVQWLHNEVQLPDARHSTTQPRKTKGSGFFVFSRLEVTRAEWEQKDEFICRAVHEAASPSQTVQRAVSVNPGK

The assay concerns the target mixture of three Der p 2 specific recombinant human IgE clones H10, H12, P4E (human) (UniProt P01854). As to the kind of experiment: RBL-SX38 IgE displacement, FACS.
In the case of B1, the EC50 was 35.6 nM and the Max effect/effect 1 µM is 99%.

As for B2, the EC50 was 24.1 nM and the Max effect/effect 1 µM is 99%.

For B3, the EC50 was 2 nM and the Max effect/effect 1 µM was found to be 97%.

For B4, the EC50 stood at 2.3 nM and the Max effect/effect 1 µM was found to be 95%.

Consider B5, for which the EC50 came out at 96.1 nM and the Max effect/effect 1 µM came to 95%.
